This is an account of results in US20100158968A1 (PURDUE RESEARCH FOUNDATION, published 2010).

Holding throughout (assay): cell-based or functional assay
The target of assay [1] is T1, mitogen-activated protein kinase-activated protein kinase 2 (human MK2) (human, UniProt P49137 46-400, limits assumed).
Assay [2] deals with SAPK2a (h) (p38α) (human, UniProt Q16539 1-360).
Assay [3] deals with MK3 (mitogen-activated protein kinase-activated protein kinase 3) (human, UniProt Q16644 1-382, limits assumed).
Sequence of MK3 (mitogen-activated protein kinase-activated protein kinase 3) (Q16644 whole entry): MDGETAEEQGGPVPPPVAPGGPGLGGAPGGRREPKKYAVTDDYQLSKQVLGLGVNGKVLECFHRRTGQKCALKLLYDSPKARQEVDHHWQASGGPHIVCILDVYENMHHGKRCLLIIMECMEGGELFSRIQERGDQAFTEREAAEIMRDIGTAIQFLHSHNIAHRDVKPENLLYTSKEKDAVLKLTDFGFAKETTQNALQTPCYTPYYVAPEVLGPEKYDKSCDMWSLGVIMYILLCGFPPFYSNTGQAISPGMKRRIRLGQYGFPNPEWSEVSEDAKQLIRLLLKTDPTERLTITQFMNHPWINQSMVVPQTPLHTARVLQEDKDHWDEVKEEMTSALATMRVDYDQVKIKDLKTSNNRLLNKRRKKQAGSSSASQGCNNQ
In assay [4] the target is CaMKI (h) (calcium/calmodulin-dependent protein kinase) (human, UniProt Q14012 1-370, limits assumed).
Sequence of CaMKI (h) (calcium/calmodulin-dependent protein kinase) (Q14012 whole entry): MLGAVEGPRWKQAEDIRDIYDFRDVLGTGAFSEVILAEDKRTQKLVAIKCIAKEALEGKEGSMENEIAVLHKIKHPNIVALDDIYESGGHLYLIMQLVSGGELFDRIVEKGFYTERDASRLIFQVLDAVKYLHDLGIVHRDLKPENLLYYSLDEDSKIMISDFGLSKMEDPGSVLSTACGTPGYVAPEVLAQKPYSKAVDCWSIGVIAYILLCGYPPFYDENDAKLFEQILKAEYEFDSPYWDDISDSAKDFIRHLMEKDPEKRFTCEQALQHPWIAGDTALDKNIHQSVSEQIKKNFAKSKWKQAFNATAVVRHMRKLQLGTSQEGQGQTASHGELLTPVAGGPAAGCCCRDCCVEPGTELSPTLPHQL
For assay [5], the target named is T2, PRAK (h) (p38 regulated/activated protein kinase) (human, UniProt Q8IW41 1-473, limits assumed).
T2 sequence (looked up): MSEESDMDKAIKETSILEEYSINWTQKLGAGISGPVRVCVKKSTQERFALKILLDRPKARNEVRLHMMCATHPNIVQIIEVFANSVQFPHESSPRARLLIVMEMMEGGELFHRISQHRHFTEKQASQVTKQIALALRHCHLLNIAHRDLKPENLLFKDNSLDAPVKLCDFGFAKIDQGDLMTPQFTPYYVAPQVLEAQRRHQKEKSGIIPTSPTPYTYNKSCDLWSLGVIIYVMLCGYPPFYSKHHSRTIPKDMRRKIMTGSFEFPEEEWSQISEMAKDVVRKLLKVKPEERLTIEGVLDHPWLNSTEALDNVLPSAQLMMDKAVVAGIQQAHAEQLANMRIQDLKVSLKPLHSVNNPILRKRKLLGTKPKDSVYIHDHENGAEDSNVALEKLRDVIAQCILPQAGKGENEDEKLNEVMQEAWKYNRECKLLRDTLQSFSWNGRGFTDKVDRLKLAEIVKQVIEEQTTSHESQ

In assay [6] the target is T3, IRAK4 (h) (IL-1 receptor (IL-1R)-associated kinase) (human, UniProt Q9NWZ3 1-460, limits assumed).
T3 sequence (looked up): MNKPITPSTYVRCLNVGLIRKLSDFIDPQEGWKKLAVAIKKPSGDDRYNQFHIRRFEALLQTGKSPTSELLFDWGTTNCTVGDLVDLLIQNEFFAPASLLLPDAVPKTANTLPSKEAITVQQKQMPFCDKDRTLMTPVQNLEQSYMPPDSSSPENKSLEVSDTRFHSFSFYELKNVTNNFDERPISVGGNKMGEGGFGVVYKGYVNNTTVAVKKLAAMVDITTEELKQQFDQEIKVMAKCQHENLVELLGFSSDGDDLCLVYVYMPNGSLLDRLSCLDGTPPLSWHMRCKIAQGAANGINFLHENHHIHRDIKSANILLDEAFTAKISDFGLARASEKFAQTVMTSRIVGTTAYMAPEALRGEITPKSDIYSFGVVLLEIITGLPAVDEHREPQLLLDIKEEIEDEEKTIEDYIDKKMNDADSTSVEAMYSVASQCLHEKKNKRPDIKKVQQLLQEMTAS

Assay [7] has as its target PKBβ (h) (protein kinase B) (human, UniProt P31751 120-481, limits assumed).
Assay [8] has as its target ROCK-I (h) (Rho-associated serine/threonine kinase) (human, UniProt Q13464 17-535, limits assumed).
Assay [9] concerns the target MLCK (h) (myosin light chain kinase) (human).
In assay [10] the target is T1, mitogen-activated protein …. This is another data set of the same source.

T1 sequence (P49137 46-400 limits assumed): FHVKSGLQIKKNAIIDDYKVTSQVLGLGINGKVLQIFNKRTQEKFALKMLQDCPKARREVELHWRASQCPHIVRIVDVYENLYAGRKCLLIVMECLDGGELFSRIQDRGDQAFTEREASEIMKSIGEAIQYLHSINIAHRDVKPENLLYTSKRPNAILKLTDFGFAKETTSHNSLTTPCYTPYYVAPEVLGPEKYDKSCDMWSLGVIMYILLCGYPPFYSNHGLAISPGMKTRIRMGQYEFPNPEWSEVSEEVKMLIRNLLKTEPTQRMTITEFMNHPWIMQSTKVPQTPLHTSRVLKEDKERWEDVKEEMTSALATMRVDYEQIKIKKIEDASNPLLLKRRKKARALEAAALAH
Sequence of PKBβ (h) (protein kinase B) (P31751 120-481 limits assumed): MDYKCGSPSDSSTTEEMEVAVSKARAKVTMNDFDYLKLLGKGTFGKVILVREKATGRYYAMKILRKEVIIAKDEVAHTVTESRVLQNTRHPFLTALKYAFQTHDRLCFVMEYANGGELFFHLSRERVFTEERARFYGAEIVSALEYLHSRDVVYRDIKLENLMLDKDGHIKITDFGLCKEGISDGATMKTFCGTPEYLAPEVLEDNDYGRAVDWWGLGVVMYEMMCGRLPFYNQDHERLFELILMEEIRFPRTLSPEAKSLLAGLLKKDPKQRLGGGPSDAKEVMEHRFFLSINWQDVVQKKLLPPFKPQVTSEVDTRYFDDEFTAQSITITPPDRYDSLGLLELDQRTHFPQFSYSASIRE
Sequence of ROCK-I (h) (Rho-associated serine/threonine kinase) (Q13464 17-535 limits assumed): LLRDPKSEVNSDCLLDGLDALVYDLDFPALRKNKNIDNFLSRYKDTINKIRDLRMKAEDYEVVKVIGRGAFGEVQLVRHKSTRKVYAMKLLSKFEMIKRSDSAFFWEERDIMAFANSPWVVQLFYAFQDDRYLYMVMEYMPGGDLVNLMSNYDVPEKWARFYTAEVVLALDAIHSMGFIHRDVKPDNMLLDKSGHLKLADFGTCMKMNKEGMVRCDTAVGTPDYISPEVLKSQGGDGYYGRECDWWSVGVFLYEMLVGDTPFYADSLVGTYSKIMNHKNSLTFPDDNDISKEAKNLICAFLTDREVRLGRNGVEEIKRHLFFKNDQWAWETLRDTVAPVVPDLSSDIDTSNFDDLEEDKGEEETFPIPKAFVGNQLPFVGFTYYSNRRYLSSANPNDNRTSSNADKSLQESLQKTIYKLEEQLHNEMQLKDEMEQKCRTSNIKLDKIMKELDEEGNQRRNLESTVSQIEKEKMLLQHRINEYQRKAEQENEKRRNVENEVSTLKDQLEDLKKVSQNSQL
Sequence of SAPK2a (h) (p38α) (Q16539 whole entry): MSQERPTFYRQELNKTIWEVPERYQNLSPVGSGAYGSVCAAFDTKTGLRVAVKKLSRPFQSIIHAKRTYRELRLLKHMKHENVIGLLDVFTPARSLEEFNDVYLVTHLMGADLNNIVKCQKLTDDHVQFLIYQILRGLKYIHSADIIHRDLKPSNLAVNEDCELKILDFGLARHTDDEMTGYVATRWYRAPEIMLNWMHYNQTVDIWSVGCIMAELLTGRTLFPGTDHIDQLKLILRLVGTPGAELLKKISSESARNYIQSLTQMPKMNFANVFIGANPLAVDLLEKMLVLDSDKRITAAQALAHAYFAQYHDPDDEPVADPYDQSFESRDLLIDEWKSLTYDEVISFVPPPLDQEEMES

YARAAARQARALNRQLGVAA: the “Kinase Activity, peptide at 300 µM, radiometric assay” value (“Kinase Activity, peptide at 300 µM” below) in assay [1] turned out to be 10%; in assay [2] it was 100%; in [3], 19%; in assay [4], 8%; in [5], 81%; in [6], 68%. The “Kinase Activity, peptide at 300 µM” value is 96% in [7], 95% in [8] and 66% in [9].
Consider YARAAARQARALARQLGVAA, for which the “Kinase Activity, peptide at 300 µM” value was -7% in assay [1]; 66% in [2]; 5% in [3]; 2% in assay [4]; 86% in assay [5]; 23% in [6]. The results for the “Kinase Activity, peptide at 300 µM” value in assay [7], in assay [8] and in assay [9] were 17%, 27% and 9%, respectively.
For the molecule WLRRRIKAWLRRIKALNRQLGVAA, the “IC50 (radiometric kinase assay), fold lower than the therapeutic inhibitor peptide incorporating the PTD peptide … [SEQ ID NO: 5]” value in assay [10] is above 30 fold.
